Experimental data as given in patent US20180057595A1 (CELLDEX THERAPEUTICS, published 2018).

Legend:
[1] = molecular target: MET without the 47 amino acids encoded by exon 14 (H596 cells) (human) (UniProt P08581); test: cell-based or functional assay
[2] = molecular target: human MET, cell-surface expressed (human, UniProt P08581 25-1390); test: cell-based or functional assay
murine MET-ECD = molecular target: T1, murine MET-ECD (murine, UniProt P16056 25-931); test: ELISA on coated murine MET-ECD
T1 construct: extracellular domain; also called mouse cMET ECD
T1 sequence (P16056 25-931): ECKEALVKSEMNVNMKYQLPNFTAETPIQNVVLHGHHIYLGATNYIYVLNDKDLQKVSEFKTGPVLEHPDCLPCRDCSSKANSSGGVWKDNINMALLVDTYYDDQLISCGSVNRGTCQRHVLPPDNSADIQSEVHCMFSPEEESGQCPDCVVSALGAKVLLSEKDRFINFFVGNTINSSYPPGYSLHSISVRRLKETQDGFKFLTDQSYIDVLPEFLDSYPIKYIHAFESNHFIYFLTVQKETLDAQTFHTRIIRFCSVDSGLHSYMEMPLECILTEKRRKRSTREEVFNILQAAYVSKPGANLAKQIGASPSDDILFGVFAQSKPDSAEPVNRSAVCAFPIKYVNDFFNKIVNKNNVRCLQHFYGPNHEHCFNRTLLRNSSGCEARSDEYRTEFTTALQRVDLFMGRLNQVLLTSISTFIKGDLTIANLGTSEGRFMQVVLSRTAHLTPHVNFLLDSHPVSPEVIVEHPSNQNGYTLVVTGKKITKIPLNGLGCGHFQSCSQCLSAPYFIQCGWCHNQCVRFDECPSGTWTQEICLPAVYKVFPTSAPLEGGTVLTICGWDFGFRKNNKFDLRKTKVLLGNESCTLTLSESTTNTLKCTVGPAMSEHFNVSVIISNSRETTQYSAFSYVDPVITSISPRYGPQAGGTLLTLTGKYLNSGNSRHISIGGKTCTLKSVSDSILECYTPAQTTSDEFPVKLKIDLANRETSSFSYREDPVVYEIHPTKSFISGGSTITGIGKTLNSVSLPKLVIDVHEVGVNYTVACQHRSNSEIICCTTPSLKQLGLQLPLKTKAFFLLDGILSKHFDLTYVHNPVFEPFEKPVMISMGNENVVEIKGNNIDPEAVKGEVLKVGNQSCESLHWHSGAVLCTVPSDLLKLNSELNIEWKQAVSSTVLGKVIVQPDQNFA
Experimental: To measure antibody binding by ELISA, 10 μg of human, murine or chimeric MET-ECD was coated onto 96-well plates (Costar). Serial dilutions of antibodies were added to the plates and incubated at room temperature for 1 hr prior to the addition of HRP-conjugated secondary antibody. Luminescence was measured with BioTek SYNERGY™ HT plate reader, and binding EC₅₀ values were determined using […] PRISM® software.

mouse MET on MS1 cells = molecular target: T2, mouse MET on MS1 cells (mouse, UniProt P16056 25-1379); test: FACS, serial dilutions of Alexa647-labelled antibody on MS1 cells
T2 construct: whole, on cells; also called Murine (MS1)
T2 sequence (P16056 25-1379): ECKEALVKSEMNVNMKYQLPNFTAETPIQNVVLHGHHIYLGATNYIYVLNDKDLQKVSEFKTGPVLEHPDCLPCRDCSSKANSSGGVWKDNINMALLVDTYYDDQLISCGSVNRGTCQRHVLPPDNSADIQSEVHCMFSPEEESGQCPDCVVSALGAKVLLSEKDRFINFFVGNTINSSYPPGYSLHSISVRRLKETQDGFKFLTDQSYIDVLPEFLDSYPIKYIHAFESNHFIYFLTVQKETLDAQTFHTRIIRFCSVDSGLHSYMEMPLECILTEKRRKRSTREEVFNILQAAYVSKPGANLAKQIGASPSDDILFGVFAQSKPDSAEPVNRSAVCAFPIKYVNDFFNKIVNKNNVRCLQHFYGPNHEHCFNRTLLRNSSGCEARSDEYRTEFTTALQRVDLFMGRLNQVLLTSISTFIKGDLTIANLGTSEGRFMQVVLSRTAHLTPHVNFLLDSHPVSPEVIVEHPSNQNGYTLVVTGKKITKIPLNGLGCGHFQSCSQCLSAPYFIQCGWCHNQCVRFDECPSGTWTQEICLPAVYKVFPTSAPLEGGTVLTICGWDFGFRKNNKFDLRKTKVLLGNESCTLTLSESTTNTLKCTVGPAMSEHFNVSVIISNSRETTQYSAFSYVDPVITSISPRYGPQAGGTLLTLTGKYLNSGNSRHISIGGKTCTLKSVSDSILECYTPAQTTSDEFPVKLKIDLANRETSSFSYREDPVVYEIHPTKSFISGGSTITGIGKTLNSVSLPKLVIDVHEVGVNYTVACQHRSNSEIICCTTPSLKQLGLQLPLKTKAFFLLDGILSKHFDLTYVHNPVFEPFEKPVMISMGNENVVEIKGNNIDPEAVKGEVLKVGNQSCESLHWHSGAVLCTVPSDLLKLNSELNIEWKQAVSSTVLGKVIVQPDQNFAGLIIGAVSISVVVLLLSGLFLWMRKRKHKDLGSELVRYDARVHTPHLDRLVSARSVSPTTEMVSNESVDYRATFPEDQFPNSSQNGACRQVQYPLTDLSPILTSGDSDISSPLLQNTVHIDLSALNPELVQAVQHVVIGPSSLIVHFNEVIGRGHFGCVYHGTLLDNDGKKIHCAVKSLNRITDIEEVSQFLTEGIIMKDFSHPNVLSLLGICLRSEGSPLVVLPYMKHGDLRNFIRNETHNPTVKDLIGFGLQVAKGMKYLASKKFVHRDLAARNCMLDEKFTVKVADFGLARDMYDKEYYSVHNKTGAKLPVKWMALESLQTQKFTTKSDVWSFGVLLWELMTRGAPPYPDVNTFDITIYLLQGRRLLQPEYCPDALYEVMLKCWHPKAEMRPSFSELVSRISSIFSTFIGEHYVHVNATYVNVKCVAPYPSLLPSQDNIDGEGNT
Experimental: (§1) To measure antibody binding affinities against cell surface receptor, antibodies were labeled with the Alexa647 antibody labeling kit and purified per manufacturer's instruction (Invitrogen). A549 (human), 4MBr5 (monkey), MDCK (canine), and MS1 (murine) cells were resuspended in pre-chilled FACS buffer, incubated on ice for 1 hr and distributed to 96-well plates at 10⁵ cell/well. Serial dilutions of labeled antibodies were added to each well and incubated on ice for 4 hrs to allow antibody binding to reach equilibrium. Mean fluorescence intensity was analyzed using a FACS reader (ACCURI™-C6; BD Biosciences), and apparent binding affinities were determined using […] PRISM® software.

dog MET on MDCK cells = molecular target: T3, dog MET on MDCK cells (dog, UniProt Q75ZY9 25-1382); test: FACS, serial dilutions of Alexa647-labelled antibody on MDCK cells
T3 construct: whole, on cells; also called Canine (MDCK)
T3 sequence (Q75ZY9 25-1382): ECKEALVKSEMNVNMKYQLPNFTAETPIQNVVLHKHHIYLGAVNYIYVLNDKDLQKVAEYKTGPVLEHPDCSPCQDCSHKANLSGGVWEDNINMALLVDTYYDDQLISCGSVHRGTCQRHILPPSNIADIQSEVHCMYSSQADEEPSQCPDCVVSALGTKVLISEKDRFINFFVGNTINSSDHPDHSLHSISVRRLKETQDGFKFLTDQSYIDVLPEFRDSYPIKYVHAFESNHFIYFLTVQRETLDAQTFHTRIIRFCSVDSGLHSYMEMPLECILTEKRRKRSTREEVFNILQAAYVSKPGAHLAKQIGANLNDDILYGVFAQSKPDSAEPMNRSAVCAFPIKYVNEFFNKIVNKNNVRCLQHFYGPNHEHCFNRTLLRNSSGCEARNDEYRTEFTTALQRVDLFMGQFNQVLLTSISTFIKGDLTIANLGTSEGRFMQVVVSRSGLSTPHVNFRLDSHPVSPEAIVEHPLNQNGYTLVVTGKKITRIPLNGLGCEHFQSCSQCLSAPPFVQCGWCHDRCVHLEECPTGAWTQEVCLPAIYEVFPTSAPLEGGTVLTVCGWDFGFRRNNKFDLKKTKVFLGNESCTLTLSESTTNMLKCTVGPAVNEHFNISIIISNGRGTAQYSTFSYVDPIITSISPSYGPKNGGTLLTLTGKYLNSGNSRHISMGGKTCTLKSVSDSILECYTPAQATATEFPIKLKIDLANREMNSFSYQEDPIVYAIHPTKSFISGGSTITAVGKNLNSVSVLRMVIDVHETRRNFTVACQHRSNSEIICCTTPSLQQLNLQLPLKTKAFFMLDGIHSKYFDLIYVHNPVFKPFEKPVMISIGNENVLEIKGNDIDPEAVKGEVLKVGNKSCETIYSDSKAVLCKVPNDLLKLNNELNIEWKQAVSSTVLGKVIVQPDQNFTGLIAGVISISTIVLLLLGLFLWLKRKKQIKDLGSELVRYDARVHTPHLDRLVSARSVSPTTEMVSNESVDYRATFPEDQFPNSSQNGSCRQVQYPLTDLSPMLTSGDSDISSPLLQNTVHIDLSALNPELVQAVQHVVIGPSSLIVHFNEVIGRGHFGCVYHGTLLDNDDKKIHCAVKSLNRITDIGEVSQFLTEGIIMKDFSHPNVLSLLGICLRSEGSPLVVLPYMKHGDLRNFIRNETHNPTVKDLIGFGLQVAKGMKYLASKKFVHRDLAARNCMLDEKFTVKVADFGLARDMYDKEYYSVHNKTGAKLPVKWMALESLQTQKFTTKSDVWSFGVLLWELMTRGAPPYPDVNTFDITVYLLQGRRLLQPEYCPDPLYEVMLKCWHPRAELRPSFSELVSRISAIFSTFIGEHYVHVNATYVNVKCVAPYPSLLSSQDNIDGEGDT
Experimental: as §1

hMET R331K/S336N = molecular target: T4, hMET R331K/S336N (human, UniProt P08581 25-1390); test: flow cytometry on transfected CHO cells (ND = not detectable)
T4 construct: whole, on cells; also called human to canine
Experimental: (§2) This surface-exposed cluster in the human MET (hMET) protein was replaced with corresponding amino acids from canine or murine MET. hMET mutants were then transfected into CHO cells and antibody binding affinity was measured by flow cytometry.

hMET Q328H/R331K/S336N = molecular target: T5, hMET Q328H/R331K/S336N (human, UniProt P08581 25-1390); test: as above
T5 construct: whole, on cells; also called human to canine
Experimental: as §2

hMET R331K/L337P = molecular target: T6, hMET R331K/L337P (human, UniProt P08581 25-1390); test: as above
T6 construct: whole, on cells; also called human to murine
Experimental: as §2

[3] = molecular target: T7, hMET Q328N/R331K/L337P/N338S (human, UniProt P08581 25-1390); test: as above
T7 construct: whole, on cells; also called human to murine
Experimental: as §2

Row | Molecule | maximal percent induction of MET degradation in SNU-5 cells [2] [%] | percent inhibition of MET phosphorylation in SNU-5 cells [2] [%] | binding result (murine MET-ECD) | binding result (mouse MET on MS1 cells) | binding result (dog MET on MDCK cells) | further results
1 | HGF (from UniProt P14210 32-728) (ligand) |  |  |  |  |  | receptor degradation, H596 cells, 1 nM HGF for 24 hrs [1]: 30%; receptor degradation, cell lines expressing wild-type MET such as A549 and U87MG, 1 nM HGF [2]: 80%
2 | Ab235C (antibody, human IgG1, V domains shown) VH: QVQLQQSGAELMKPGASVKISCKATGYTFSNYWIEWVKQRPGHGLEWIGEILPGSDYTKYNEKFKGKATFTADTSSNTAYMQLSSLTSEDSAVYYCARPSTIPPDCWGQGTTLTVSA VL: QIVLTQSPAIMSTSPGEKVTMTCSASSSVNYMFWYQQKAGSSPRLLIYDTFNLASGVPVRFSGSGSGTSYSLTISRMEAEDAATYYCQQWSIYPYTFGGGTKLEIKR | 6 | 10 |  |  |  | 
3 | Ab236C-IgG2 (antibody, V domains shown) VH: QAQLQQSGAELMKPGASVKISCKATGYIFSSYWIEWVKQRPGHGLEWIGEILPGSDFIKYSEKFKGKATFTADTSSNTAYMQLSNLTSEDSAVYYCARPSTVPPDCWGQGTTLTVSA VL: QIVLTQSPAIMSASPGEKVTMTCSASSSVSYMFWYQQKPGSSPRLLIYDTSDLASGVPVRFSGSGSGTSYSLTISRMEAEDAATYYCQQWSNYPYTFGGGTKLEIKR | 69 | 75 |  |  |  | 
4 | Ab236C (antibody, human IgG1, V domains shown) VH: QAQLQQSGAELMKPGASVKISCKATGYIFSSYWIEWVKQRPGHGLEWIGEILPGSDFIKYSEKFKGKATFTADTSSNTAYMQLSNLTSEDSAVYYCARPSTVPPDCWGQGTTLTVSA VL: QIVLTQSPAIMSASPGEKVTMTCSASSSVSYMFWYQQKPGSSPRLLIYDTSDLASGVPVRFSGSGSGTSYSLTISRMEAEDAATYYCQQWSNYPYTFGGGTKLEIKR | 19 | 17 |  |  |  | 
5 | Ab235C-IgG2 (antibody, V domains shown) VH: QVQLQQSGAELMKPGASVKISCKATGYTFSNYWIEWVKQRPGHGLEWIGEILPGSDYTKYNEKFKGKATFTADTSSNTAYMQLSSLTSEDSAVYYCARPSTIPPDCWGQGTTLTVSA VL: QIVLTQSPAIMSTSPGEKVTMTCSASSSVNYMFWYQQKAGSSPRLLIYDTFNLASGVPVRFSGSGSGTSYSLTISRMEAEDAATYYCQQWSIYPYTFGGGTKLEIKR | 64 | 64 |  |  |  | 
6 | Ab238C (antibody, human IgG1, V domains shown) VH: QVTLKESGPGILQPSQTLSLTCTFSGFSLSTYGMGVAWIRQPSGKDLEWLANIWWDDVNYSNPSLKNRLTISKDTSNNQVFLQITNVDTAETATYYCARIGTSHIVDAWGQGASVTVSA VL: DIRMTQSPASLSASLGETVNIECLASEDIYSDLAWYQQKPGKSPQLLIYNANTLQNGVPSVFSGSGSGTQYSLKINNLHSEDVATYFCQQYNNYPPTFGGGTKLEIKR | 39 | 19 |  |  |  | 
7 | Ab238C-IgG2 (antibody, V domains shown) VH: QVTLKESGPGILQPSQTLSLTCTFSGFSLSTYGMGVAWIRQPSGKDLEWLANIWWDDVNYSNPSLKNRLTISKDTSNNQVFLQITNVDTAETATYYCARIGTSHIVDAWGQGASVTVSA VL: DIRMTQSPASLSASLGETVNIECLASEDIYSDLAWYQQKPGKSPQLLIYNANTLQNGVPSVFSGSGSGTQYSLKINNLHSEDVATYFCQQYNNYPPTFGGGTKLEIKR | 35 | 24 |  |  |  | 
8 | Ab237C-IgG2 (antibody, V domains shown) VH: EVQLVESGGGLVQPGRSLKLSCAASGFTFSDSYMAWVRQAPTKGLEWVASISSDGGGTYYRDSVKGRFSISRDNAKSSLYLQMDSLRSEDTATYYCTTEGIYTTDYYPYCFNYWGHGVMVTVSA VL: DIQMTQSPGSLSASLGETVTIECLASADIHSNLAWYQQKPGNSPQLLIYYGNNLNDGVPSRFSGSGSGTQYSLKINSLQSEDVSIYFCQQSYDSPPTFGAGTKLEIKR | 81 | 72 |  |  |  | 

The next lines start with results.

Row | maximal percent induction of MET degradation in SNU-5 cells [2] [%] | percent inhibition of MET phosphorylation in SNU-5 cells [2] [%] | binding result (murine MET-ECD) | binding result (mouse MET on MS1 cells) | binding result (dog MET on MDCK cells) | Molecule | further results
9 |  |  | no binding | no binding | no binding | Ab235 (antibody, mouse IgG1, V domains shown, Mouse IgG1, kappa) VH: QVQLQQSGAELMKPGASVKISCKATGYTFSNYWIEWVKQRPGHGLEWIGEILPGSDYTKYNEKFKGKATFTADTSSNTAYMQLSSLTSEDSAVYYCARPSTIPPDCWGQGTTLTVSA VL: QIVLTQSPAIMSTSPGEKVTMTCSASSSVNYMFWYQQKAGSSPRLLIYDTFNLASGVPVRFSGSGSGTSYSLTISRMEAEDAATYYCQQWSIYPYTFGGGTKLEIKR | 
10 |  |  | no binding | no binding | no binding | Ab236 (antibody, mouse IgG1, V domains shown, Mouse IgG1, kappa) VH: QAQLQQSGAELMKPGASVKISCKATGYIFSSYWIEWVKQRPGHGLEWIGEILPGSDFIKYSEKFKGKATFTADTSSNTAYMQLSNLTSEDSAVYYCARPSTVPPDCWGQGTTLTVSA VL: QIVLTQSPAIMSASPGEKVTMTCSASSSVSYMFWYQQKPGSSPRLLIYDTSDLASGVPVRFSGSGSGTSYSLTISRMEAEDAATYYCQQWSNYPYTFGGGTKLEIKR | 
11 | 36 | 33 |  |  |  | Ab239C (antibody, human IgG1, V domains shown) VH: EVQLVESGGGLVQPGRSLKLSCAASGFSFTDCYMAWVRQAPTKGLEWVASISSDGGGTYYRDSVKGRFTISRDNARSSLYLEMDSLRSEDTATYYCTTERYYDGTYYGYWYFDFWGPGTMVTVSA VL: GQFTLTQPKSVSGSLRSTITIPCVRSSGDIGDRYVSWYQQRLGRPPLNVIYAADQRPSEVSDRFSGSIDSSSNSASLTITDLQMDDEADYFCQSYDSNIDIVFGGGTKLEIKR | 
12 | 75 | 75 |  |  |  | Ab239C-IgG2 (antibody, V domains shown) VH: EVQLVESGGGLVQPGRSLKLSCAASGFSFTDCYMAWVRQAPTKGLEWVASISSDGGGTYYRDSVKGRFTISRDNARSSLYLEMDSLRSEDTATYYCTTERYYDGTYYGYWYFDFWGPGTMVTVSA VL: GQFTLTQPKSVSGSLRSTITIPCVRSSGDIGDRYVSWYQQRLGRPPLNVIYAADQRPSEVSDRFSGSIDSSSNSASLTITDLQMDDEADYFCQSYDSNIDIVFGGGTKLEIKR | 
13 |  |  | no binding | no binding | no binding | Ab239 (antibody, rat IgG2a, V domains shown, Rat IgG2a, lambda) VH: EVQLVESGGGLVQPGRSLKLSCAASGFSFTDCYMAWVRQAPTKGLEWVASISSDGGGTYYRDSVKGRFTISRDNARSSLYLEMDSLRSEDTATYYCTTERYYDGTYYGYWYFDFWGPGTMVTVSA VL: GQFTLTQPKSVSGSLRSTITIPCVRSSGDIGDRYVSWYQQRLGRPPLNVIYAADQRPSEVSDRFSGSIDSSSNSASLTITDLQMDDEADYFCQSYDSNIDIVFGGGTKLEIKR | 
14 |  |  | no binding | no binding | no binding | Ab238 (antibody, rat IgG2a, V domains shown, Rat IgG2a, kappa) VH: QVTLKESGPGILQPSQTLSLTCTFSGFSLSTYGMGVAWIRQPSGKDLEWLANIWWDDVNYSNPSLKNRLTISKDTSNNQVFLQITNVDTAETATYYCARIGTSHIVDAWGQGASVTVSA VL: DIRMTQSPASLSASLGETVNIECLASEDIYSDLAWYQQKPGKSPQLLIYNANTLQNGVPSVFSGSGSGTQYSLKINNLHSEDVATYFCQQYNNYPPTFGGGTKLEIKR | binding result (hMET R331K/S336N): no binding; binding result (hMET Q328H/R331K/S336N): no binding; binding result (hMET R331K/L337P): no binding; binding result [3]: no binding
15 |  |  | no binding | no binding | no binding | Ab237 (antibody, rat IgG2a, V domains shown, Rat IgG2a, kappa) VH: EVQLVESGGGLVQPGRSLKLSCAASGFTFSDSYMAWVRQAPTKGLEWVASISSDGGGTYYRDSVKGRFSISRDNAKSSLYLQMDSLRSEDTATYYCTTEGIYTTDYYPYCFNYWGHGVMVTVSA VL: DIQMTQSPGSLSASLGETVTIECLASADIHSNLAWYQQKPGNSPQLLIYYGNNLNDGVPSRFSGSGSGTQYSLKINSLQSEDVSIYFCQQSYDSPPTFGAGTKLEIKR | binding result (hMET R331K/S336N): no binding; binding result (hMET Q328H/R331K/S336N): no binding; binding result (hMET R331K/L337P): no binding; binding result [3]: no binding
